{
  "source": "patent US20150010525A1",
  "about": "“Catalytic Tagging System to Study Macro-Molecular Interactions Using Engineered Ubiquitin Ligase and Ubiquitin-Like Proteins to Facilitate Substrate Identification” (THE REGENTS OF THE UNIVERSITY OF CALIFORNIA, priority 2012, published 2015)",
  "data": [
    {"molecular_target": "T1, cIAP1 (Homo sapiens, UniProt P61081+Q13490)", "T1 construct": "cIAP1(ΔR) (residues 1-555); GST (N, cleaved yes); made in house; host or cells: E. coli BL21 (DE3)", "T1 sequence (Q13490+P61081 fused)": "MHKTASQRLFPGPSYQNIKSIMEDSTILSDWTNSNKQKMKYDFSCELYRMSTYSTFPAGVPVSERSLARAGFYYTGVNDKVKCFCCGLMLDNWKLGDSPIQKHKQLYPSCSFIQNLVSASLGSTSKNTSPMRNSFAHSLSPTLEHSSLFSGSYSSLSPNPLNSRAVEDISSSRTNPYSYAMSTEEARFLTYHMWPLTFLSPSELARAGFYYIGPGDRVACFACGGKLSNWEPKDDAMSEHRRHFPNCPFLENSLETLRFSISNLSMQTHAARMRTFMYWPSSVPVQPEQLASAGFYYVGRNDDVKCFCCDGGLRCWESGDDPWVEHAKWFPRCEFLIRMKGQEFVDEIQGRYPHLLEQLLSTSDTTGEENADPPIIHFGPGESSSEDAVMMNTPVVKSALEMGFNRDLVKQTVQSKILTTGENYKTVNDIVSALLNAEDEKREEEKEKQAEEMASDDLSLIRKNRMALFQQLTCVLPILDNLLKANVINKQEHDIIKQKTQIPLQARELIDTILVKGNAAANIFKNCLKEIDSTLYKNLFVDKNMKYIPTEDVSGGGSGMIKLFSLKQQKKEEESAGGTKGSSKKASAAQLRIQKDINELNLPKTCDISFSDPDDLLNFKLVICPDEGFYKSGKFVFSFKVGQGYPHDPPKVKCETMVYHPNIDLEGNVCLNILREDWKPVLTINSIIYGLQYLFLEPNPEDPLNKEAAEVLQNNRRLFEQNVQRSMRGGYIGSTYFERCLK", "assay": "SILAC mass spectrometry screen for cIAP1 substrates with NEDDylator^cIAP1 in apoptotic Jurkat cell lysate", "assay_type": "biochemical", "conditions": "Light lysate with NEDDylator^cIAP1, Heavy lysate with Ubc12", "procedure": "Jurkat cells were grown in media containing either light or heavy isotopes of lysine and arginine and induced to undergo apoptosis with STS. Light cell extracts were incubated with the respective catalytic tagging system for each of the two IAPs and the heavy extracts labeled only with the wild-type NEDD8 E2, Ubc12. […] 100 mg ^13C6^15N2 L-Lys.2HCl and 86 mg ^13C6 L-Arg.HCl (Cambridge Isotope) were added to the same amount of medium to generate the “Heavy” medium. Jurkat cells were cultured separately in “Light” or “Heavy” medium for 7 days to allow for thorough isotope incorporation. For IAP substrate identification, 400 million cells were treated with 2 μM STS for 4 hours, harvested, lysed in M-PER mammalian protein extraction buffer (Thermo/Pierce) in the presence of protease inhibitors (100× ProteoBlock cocktail, Fermentas) and mixed with cell lysate prepared from 400 million untreated cells. […] Purified NEDDylated proteins were trypsinized and analyzed with tandem mass spectrometry (LC-MS/MS).\nFor SILAC experiments, Jurkat cells were cultured separately in “Light” (supplemented with regular Lys and Arg) or “Heavy” (supplemented with ^13C6^15N2 Lys and ^13C6 Arg) medium for 7 days to allow for thorough isotope incorporation. Apoptotic “Light” and “Heavy” cell extracts were prepared individually. The lysates were cleared by spinning and then diluted in 50 mM HEPES pH 7.4, 150 mM NaCl to 5 mg/ml and supplemented with 5 mM ATP, 10 mM MgCl2. Endogenous NEDD8 E1 is cell lysate was used to catalyze the reaction. HB-NEDD8 was added to both lysate at mass ratio 1:500; the catalytic tagging system was added to the “Light” lysate at mass ratio 1:1000. Equal molar of Ubc12 was added to the “Heavy” lysate. […] NEDDylated proteins were separated by one-dimensional SDS-PAGE, and trypsinized for LC-MS/MS analysis.\nFor liquid chromatography—Tandem mass spectrometry (LC-MS/MS) analysis, the tryptic peptides were first desalted and concentrated with a C18 Ziptip (Millipore). LC-MS/MS was carried out by reverse phase LC interfaced with a LTQ-Orbitrap (ThermoFisher Scientific) hybrid mass spectrometer. A nanoflow HPLC (NanoAcquity UPLC system, Waters Corporation) was equipped with a trap column (180 μm×20 mm, 5 μm SymmetryC18, from Waters) and an analytical column (100 μm×100 mm, 1.7 μm BEH130C18, from Waters). Peptides were eluted over a linear gradient from 2% solvent A (0.1% formic acid in water) to 35% solvent B (0.1% formic acid in acetonitrile) at 350 nL/min over 35 min. MS and MS/MS spectra were acquired in a data-dependent mode with MS spectra acquired in the Orbitrap at 30,000 resolving power and 6 CID MS/MS spectra acquired per MS in the LTQ linear ion trap. Dynamic exclusion was set at 90 seconds to prevent repeated MS/MS on the same precursor ion.\nThe identified peptides were searched against a random decoy protein database for evaluating the false positive rates. […] The decoy peptides were removed from the data. Protein IDs were assigned only when at least two unique peptides were identified from the same protein. For SILAC experiment, Light/Heavy ratios for the identified peptides were calculated, using ProteinProspector. The media Light/Heavy ratios of all the peptides identified for each protein were used to represent the Light/Heavy ratio of the protein.", "values": [
      {"molecule": "Isocitrate dehydrogenase [NADP], mitochondrial: potential cIAP1 substrate (protein, UniProt P48735 40-452, looked up) Isocitrate dehydrogenase …: ADKRIKVAKPVVEMDGDEMTRIIWQFIKEKLILPHVDIQLKYFDLGLPNRDQTDDQVTIDSALATQKYSVAVKCATITPDEARVEEFKLKKMWKSPNGTIRNILGGTVFREPIICKNIPRLVPGWTKPITIGRHAHGDQYKATDFVADRAGTFKMVFTPKDGSGVKEWEVYNFPAGGVGMGMYNTDESISGFAHSCFQYAIQKKWPLYMSTKNTILKAYDGRFKDIFQEIFDKHYKTDFDKNKIWYEHRLIDDMVAQVLKSSGGFVWACKNYDGDVQSDILAQGFGSLGLMTSVLVCPDGKTIEAEAAHGTVTRHYREHQKGRPTSTNPIASIFAWTRGLEHRGKLDGNQDLIRFAQMLEKVCVETVESGAMTKDLAGCIHGLSNVKLNEHFLNTTDFLDTIKSNLDRALGRQ", "L/H (Light/Heavy ratio)": 6.51},
      {"molecule": "Malate dehydrogenase, mitochondrial: potential cIAP1 substrate (protein, UniProt P40926 25-338, looked up) Malate dehydrogenase, …: AKVAVLGASGGIGQPLSLLLKNSPLVSRLTLYDIAHTPGVAADLSHIETKAAVKGYLGPEQLPDCLKGCDVVVIPAGVPRKPGMTRDDLFNTNATIVATLTAACAQHCPEAMICVIANPVNSTIPITAEVFKKHGVYNPNKIFGVTTLDIVRANTFVAELKGLDPARVNVPVIGGHAGKTIIPLISQCTPKVDFPQDQLTALTGRIQEAGTEVVKAKAGAGSATLSMAYAGARFVFSLVDAMNGKEGVVECSFVKSQETECTYFSTPLLLGKKGIEKNLGIGKVSSFEEKMISDAIPELKASIKKGEDFVKTLK", "L/H (Light/Heavy ratio)": 4.35},
      {"molecule": "Acetyl-CoA acetyltransferase, mitochondrial: potential cIAP1 substrate (protein, UniProt P24752 34-427, looked up) Acetyl-CoA acetyltransferase, …: VSKPTLKEVVIVSATRTPIGSFLGSLSLLPATKLGSIAIQGAIEKAGIPKEEVKEAYMGNVLQGGEGQAPTRQAVLGAGLPISTPCTTINKVCASGMKAIMMASQSLMCGHQDVMVAGGMESMSNVPYVMNRGSTPYGGVKLEDLIVKDGLTDVYNKIHMGSCAENTAKKLNIARNEQDAYAINSYTRSKAAWEAGKFGNEVIPVTVTVKGQPDVVVKEDEEYKRVDFSKVPKLKTVFQKENGTVTAANASTLNDGAAALVLMTADAAKRLNVTPLARIVAFADAAVEPIDFPIAPVYAASMVLKDVGLKKEDIAMWEVNEAFSLVVLANIKMLEIDPQKVNINGGAVSLGHPIGMSGARIVGHLTHALKQGEYGLASICNGGGGASAMLIQKL", "L/H (Light/Heavy ratio)": 5.67},
      {"molecule": "Medium-chain specific acyl-CoA dehydrogenase, mitochondrial: potential cIAP1 substrate (protein, UniProt P11310 26-421, looked up) Medium-chain specific …: KANRQREPGLGFSFEFTEQQKEFQATARKFAREEIIPVAAEYDKTGEYPVPLIRRAWELGLMNTHIPENCGGLGLGTFDACLISEELAYGCTGVQTAIEGNSLGQMPIIIAGNDQQKKKYLGRMTEEPLMCAYCVTEPGAGSDVAGIKTKAEKKGDEYIINGQKMWITNGGKANWYFLLARSDPDPKAPANKAFTGFIVEADTPGIQIGRKELNMGQRCSDTRGIVFEDVKVPKENVLIGDGAGFKVAMGAFDKTRPVVAAGAVGLAQRALDEATKYALERKTFGKLLVEHQAISFMLAEMAMKVELARMSYQRAAWEVDSGRRNTYYASIAKAFAGDIANQLATDAVQILGGNGFNTEYPVEKLMRDAKIYQIYEGTSQIQRLIVAREHIDKYKN", "L/H (Light/Heavy ratio)": 6.17},
      {"molecule": "Elongation factor 1-alpha 1: potential cIAP1 substrate (protein, UniProt P68104 2-462, looked up) Elongation factor 1-alpha 1: GKEKTHINIVVIGHVDSGKSTTTGHLIYKCGGIDKRTIEKFEKEAAEMGKGSFKYAWVLDKLKAERERGITIDISLWKFETSKYYVTIIDAPGHRDFIKNMITGTSQADCAVLIVAAGVGEFEAGISKNGQTREHALLAYTLGVKQLIVGVNKMDSTEPPYSQKRYEEIVKEVSTYIKKIGYNPDTVAFVPISGWNGDNMLEPSANMPWFKGWKVTRKDGNASGTTLLEALDCILPPTRPTDKPLRLPLQDVYKIGGIGTVPVGRVETGVLKPGMVVTFAPVNVTTEVKSVEMHHEALSEALPGDNVGFNVKNVSVKDVRRGNVAGDSKNDPPMEAAGFTAQVIILNHPGQISAGYAPVLDCHTAHIACKFAELKEKIDRRSGKKLEDGPKFLKSGDAAIVDMVPGKPMCVESFSDYPPLGRFAVRDMRQTVAVGVIKAVDKKAAGAGKVTKSAQKAQKAK", "L/H (Light/Heavy ratio)": 4.4}
    ]}
  ]
}
